Key:
HLA-A*11:01 = test: IEDB peptide-MHC binding, purified MHC/direct/fluorescence; filed as Kd, often an IC50 or EC50 that approximates it; ≥ and ≤ were set here for values at or beyond the usual limits of such assays
HLA-A*24:02 [1] = test: IEDB peptide-MHC binding, purified MHC/competitive/fluorescence; ≥ and ≤ were set here for values at or beyond the usual limits of such assays
HLA-B*51:01 [2] = test: IEDB peptide-MHC binding, purified MHC/competitive/radioactivity; filed as Kd, often an IC50 or EC50 that approximates it; ≥ and ≤ were set here for values at or beyond the usual limits of such assays
HLA-B*40:01 = test: IEDB peptide-MHC binding, purified MHC/direct/fluorescence; filed as Kd, often an IC50 or EC50 that approximates it; ≥ and ≤ were set here for values at or beyond the usual limits of such assays
HLA-A*30:01 = test: IEDB peptide-MHC binding, purified MHC/competitive/radioactivity; filed as Kd, often an IC50 or EC50 that approximates it; ≥ and ≤ were set here for values at or beyond the usual limits of such assays
HLA-B*35:01 = test: as above
HLA-B*53:01 = test: as above
HLA-A*02:01 [3] = test: IEDB peptide-MHC binding, purified MHC/competitive/fluorescence; ≥ and ≤ were set here for values at or beyond the usual limits of such assays
HLA-A*30:02 = test: IEDB peptide-MHC binding, purified MHC/competitive/radioactivity; filed as Kd, often an IC50 or EC50 that approximates it; ≥ and ≤ were set here for values at or beyond the usual limits of such assays
HLA-A*01:01 [4] = test: as above
HLA-A*23:01 = test: as above
HLA-A*02:02 = test: as above; conditions: source organism: Vaccinia virus WR
HLA-A*02:03 = test: as above; conditions: source organism: Vaccinia virus WR
HLA-A*02:06 = test: as above; conditions: source organism: Vaccinia virus WR
HLA-A*24:02 [5] = test: as above
HLA-A*02:01 [6] = test: IEDB peptide-MHC binding, purified MHC/competitive/fluorescence; filed as Kd, often an IC50 or EC50 that approximates it; ≥ and ≤ were set here for values at or beyond the usual limits of such assays
HLA-A*01:01 [7] = test: IEDB peptide-MHC binding, purified MHC/direct/fluorescence; filed as Kd, often an IC50 or EC50 that approximates it; ≥ and ≤ were set here for values at or beyond the usual limits of such assays
HLA-B*46:01 = test: IEDB peptide-MHC binding, purified MHC/competitive/fluorescence; filed as Kd, often an IC50 or EC50 that approximates it; ≥ and ≤ were set here for values at or beyond the usual limits of such assays; conditions: source organism: Yellow fever virus
HLA-B*51:01 [8] = test: as above; conditions: source organism: Variola virus
HLA-A*26:01 = test: IEDB peptide-MHC binding, purified MHC/competitive/radioactivity; filed as Kd, often an IC50 or EC50 that approximates it; ≥ and ≤ were set here for values at or beyond the usual limits of such assays; conditions: source organism: Dengue virus 4 Philippines/H241/1956
HLA-B*44:02 = test: as above; conditions: source organism: Dengue virus 2 Jamaica/1409/1983
[9] = source organism: Zaire ebolavirus
[10] = source organism: Dengue virus 4 Philippines/H241/1956
[11] = source organism: Vaccinia virus WR
[12] = source organism: Dengue virus 2 Jamaica/1409/1983
[13] = source organism: Dengue virus 4 Dominica/814669/1981
[14] = source organism: Dengue virus 3 Martinique/1243/1999
[15] = source organism: Dengue virus 1 Brazil/97-11/1997
[16] = source organism: Sudan ebolavirus
[17] = source organism: Dengue virus 1 Singapore/S275/1990

LTLKGTSYK gave a Kd (HLA-A*11:01; source organism: Yellow fever virus) of 0.0056 µM.

GVDFQESAD gave an IC50 (HLA-A*24:02 [1]; [9]) of no less than 117 µM.

For TPKGAVMDI, the Kd (HLA-B*51:01 [2]; [10]) was 4.22 µM.

LEVPAMGVL was tested, and the Kd (HLA-B*40:01; source organism: Mycobacterium tuberculosis) was 0.025 µM.

With HAFSSLLSG the Kd (HLA-A*30:01; [11]) was 1.11 µM.

LPIRYQTPAI gave a Kd (HLA-B*35:01; [12]) of 0.0519 µM, a Kd (HLA-B*51:01 [2]; [12]) of 0.0691 µM and a Kd (HLA-B*53:01; [12]) of 0.0135 µM.

MRTNFLIKF was tested, and the IC50 (HLA-A*02:01 [3]; [9]) was no less than 673 µM and the IC50 (HLA-A*24:02 [1]; [9]) was 4.17 µM.

Sequence KGKRALTPPV has a Kd (HLA-A*30:01; [13]) of 0.0124 µM.

With SVKCTHPLV the Kd (HLA-A*30:01; [11]) was 0.000968 µM.

IPITAAAWY gave a Kd (HLA-A*30:02; [12]) of 0.00247 µM, a Kd (HLA-B*35:01; [12]) of 0.00619 µM and a Kd (HLA-B*53:01; [12]) of 0.0266 µM.

With VTYKCPLLV the Kd (HLA-A*01:01 [4]; [13]) was 2.19 µM.

TYQNKVVKV showed a Kd (HLA-A*23:01; [14]) of 6.52 µM.

In the case of MTSTRTIIL, the Kd (HLA-A*02:02) is reported as 1.34 µM, the Kd (HLA-A*02:03) is reported as 0.84 µM and the Kd (HLA-A*02:06) is reported as 6.79 µM. It also gave a Kd (HLA-A*30:01; [11]) of 0.267 µM.

In the case of DYMTSMKRF, the Kd (HLA-A*23:01; [15]) is reported as 0.791 µM and the Kd (HLA-A*24:02 [5]; [15]) is reported as 0.214 µM.

With GLAWIPYFG the IC50 (HLA-A*02:01 [3]; [9]) was 0.134 µM and the IC50 (HLA-A*24:02 [1]; [9]) was 62.6 µM.

FMSMVSHEL gave a Kd (HLA-A*02:01 [6]; source organism: Bacillus anthracis str. A0488) of 0.0005 µM.

VPLLAMGCY was tested, and the Kd (HLA-B*35:01; [10]) was 0.112 µM.

Sequence NSRHNAQHK has a Kd (HLA-A*01:01 [7]; source organism: Salmonella enterica subsp. enterica serovar Typhimurium) of no less than 20 µM.

YTDFPCQYV showed a Kd (HLA-A*01:01 [4]; source organism: Homo sapiens) of 0.0018 µM.

YTRVLKPSV showed a Kd (HLA-A*30:01; [11]) of 0.738 µM.

For KLGFDEIKGL, the Kd (HLA-A*02:01 [6]; source organism: Variola virus) was 0.134 µM.

Sequence FEKEGYSLV has a Kd (HLA-B*40:01; source organism: Influenza A virus (A/Netherlands/458/98 (H3N2))) of 0.118 µM.

In the case of GPLRMVLAFI, the Kd (HLA-B*51:01 [2]; [10]) is reported as no less than 35.5 µM.

With VPPLPLFIF the Kd (HLA-B*51:01 [2]; [14]) was 3.58 µM.

Work on AYAQMWSLMY yielded a Kd (HLA-A*30:02; [14]) of 0.169 µM.

With SEFCDMLRL the Kd (HLA-B*40:01; source organism: Mammarenavirus guanaritoense) was 0.0842 µM.

For RHERGRPLLF, the Kd (HLA-A*23:01; [10]) was 0.248 µM.

TAVDFGNSY was tested, and the Kd (HLA-B*46:01) was 0.116 µM.

HYWTAQEQH was tested, and the IC50 (HLA-A*24:02 [1]; [16]) was 51.1 µM.

In the case of GRVNPGTYV, the IC50 (HLA-A*24:02 [1]; source organism: Variola virus) is reported as 0.0743 µM.

VTRKHMILV was tested, and the Kd (HLA-A*30:01; [10]) was 0.0194 µM.

With WVIILFQRT the IC50 (HLA-A*24:02 [1]; [9]) was no less than 1990 µM.

With MPTVIEELEK the Kd (HLA-B*35:01; [10]) was 2.62 µM and the Kd (HLA-B*53:01; [10]) was 5.38 µM.

Work on AWNVWEVEDY yielded a Kd (HLA-A*30:02; [14]) of no less than 69.7 µM.

KSSLEVYIY showed a Kd (HLA-A*01:01 [7]; source organism: Orthohantavirus hantanense) of 0.158 µM.

For DQNYVCKHTY, the Kd (HLA-A*30:02; [14]) was 8.02 µM.

Work on KVKWLQNSV yielded a Kd (HLA-A*30:01; source organism: Vaccinia virus Copenhagen) of 0.000497 µM.

In the case of YWVSNASGNI, the Kd (HLA-A*23:01; [12]) is reported as 1.33 µM.

For NPTVDGITV, the Kd (HLA-B*51:01 [2]; [12]) was 6.3 µM.

For TPQDNQLAY, the Kd (HLA-B*35:01; [15]) was 0.0103 µM.

AFFLYDRLA gave an IC50 (HLA-A*02:01 [3]; [16]) of 35.8 µM and an IC50 (HLA-A*24:02 [1]; [16]) of no less than 151 µM.

In the case of YYMATLKNVT, the Kd (HLA-A*24:02 [5]; [10]) is reported as 1.54 µM.

Work on SYTQMCDHRL yielded a Kd (HLA-A*24:02 [5]; [15]) of 0.184 µM.

Work on GIVRQRVIP yielded an IC50 (HLA-A*24:02 [1]; [9]) of no less than 151 µM.

FPPEIINVI gave a Kd (HLA-B*51:01 [8]) of 0.213 µM.

Sequence RLKDYQHFV has a Kd (HLA-A*30:01; [11]) of 0.000394 µM.

In the case of RRWGGTCRI, the IC50 (HLA-A*24:02 [1]; [16]) is reported as 0.708 µM.

In the case of LAFSIMKSV, the Kd (HLA-B*51:01 [2]; [14]) is reported as 0.155 µM.

For DIKPDNILL, the Kd (HLA-A*02:01 [6]; source organism: Trichodesmium erythraeum IMS101) was no less than 20 µM.

Work on HTAITQVRNL yielded a Kd (HLA-A*26:01) of 2.27 µM.

In the case of NYTENTSSY, the IC50 (HLA-A*24:02 [1]; [16]) is reported as 6.23 µM.

Work on LENLMWKQI yielded a Kd (HLA-B*44:02) of 0.0222 µM.

In the case of VAVSFVTLI, the Kd (HLA-B*51:01 [2]; [12]) is reported as 0.431 µM.

PFARLLNLS gave an IC50 (HLA-A*02:01 [3]; [9]) of no less than 309 µM and an IC50 (HLA-A*24:02 [1]; [9]) of 15.8 µM.

With TPKGPKVKY the Kd (HLA-A*11:01; source organism: SARS-CoV1) was no less than 46.1 µM.

For CPDDQRAWNI, the Kd (HLA-B*51:01 [2]; [17]) was 18 µM and the Kd (HLA-B*53:01; [17]) was 0.12 µM.
